Earlier results as cited in patent US6100293A, “Tetracyclic triterpene derivatives with immunosuppressant activity” (Merck & Co., Inc., priority 1998, dated 2000).

Target: T1, Kv 1.3 channels (Homo sapiens, UniProt P22001)
T1 construct: expressed in transfected cells; host or cells: CHO cells
Details: reference peptide used at saturating concentration to set the efflux window; read-out: IC50 (blocker of Kv 1.3 channels)

T1 sequence (P22001 whole entry): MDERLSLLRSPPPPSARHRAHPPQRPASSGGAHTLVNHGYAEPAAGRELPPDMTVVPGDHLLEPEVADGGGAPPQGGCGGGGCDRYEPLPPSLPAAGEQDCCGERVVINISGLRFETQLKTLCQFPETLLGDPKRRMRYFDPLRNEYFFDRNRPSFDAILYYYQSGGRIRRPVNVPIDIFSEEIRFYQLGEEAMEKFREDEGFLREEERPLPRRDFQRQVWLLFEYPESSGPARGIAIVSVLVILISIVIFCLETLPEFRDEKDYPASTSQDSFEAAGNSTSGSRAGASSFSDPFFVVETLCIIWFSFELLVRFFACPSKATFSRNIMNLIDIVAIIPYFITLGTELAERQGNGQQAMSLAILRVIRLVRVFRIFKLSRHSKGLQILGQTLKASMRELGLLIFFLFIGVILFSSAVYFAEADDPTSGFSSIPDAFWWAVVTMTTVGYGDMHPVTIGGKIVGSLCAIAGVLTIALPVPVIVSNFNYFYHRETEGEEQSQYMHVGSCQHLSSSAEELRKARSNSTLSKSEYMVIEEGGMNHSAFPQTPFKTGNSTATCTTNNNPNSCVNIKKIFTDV

In the case of “margatoxin (TIINVKCTSPKQCLPPCKAQFGQSAGAKCMNGKCKCYPH; UniProt P40755 1-39, looked up)”, the IC50 is listed as 0.1 nM.
